Measured values from patent US10772972B2, “Anti-STEAP2 antibody drug conjugates, and compositions and uses thereof” (Regeneron Pharmaceuticals, Inc., priority 2016, dated 2020).
Numbering of substitutions follows the chain as printed.

B1: BSSTEAP2/CD3-002: STEAP2×CD3 bispecific: anti-STEAP2 HCVR H2M11162N (SEQ 250), anti-CD3 HCVR CD3-VH-G5 (SEQ 1762), common LCVR SEQ 258 (antibody, V domains shown)
VH 1: QVQLQQSGPGLVKPSQTLSLTCAISGDSVSSNRAAWNWIRQSPSRGLQWLGRTYYRSKWYNDYAVSLRSRITINPVTSKNQVALHMNSVTPEDTAVYYCARAGIVVVPGPETFYYYDHGLDVWGQGTTVTVSS
VH 2: EVQLVESGGGLVQPGRSLRLSCAASGFTFDDYSMHWVRQAPGKGLEWVSGISWNSGSIGYADSVKGRFTISRDNAKNSLYLQMNSLRAEDTALYYCAKDGSGYGKFYYYGMDVWGQGTTVTVSS
VL: DIQMTQSPSSLSASVGDRVTITCRASQSIRSYLNWYQQKPGKAPELLIHAASSLQSGVPSRFSGSGSGTDFTLTISSLQPEDFASYYCQQSYSAPPITFGQGTRLEIK
B2: H2M11162N: anti-STEAP2 antibody, mouse IgG2 Fc, HCVR/LCVR SEQ ID NOs 250/258 (antibody, V domains shown)
VH: B1 VH 1
VL: B1 VL
modifications: mouse IgG2 Fc
B3: BSSTEAP2/CD3-003: STEAP2×CD3 bispecific: anti-STEAP2 HCVR H2M11162N (SEQ 250), anti-CD3 HCVR CD3-VH-G20 (SEQ 1866), common LCVR SEQ 258 (antibody, V domains shown)
VH 1: B1 VH 1
VH 2: B1 VH 2 with D99Y
VL: B1 VL
B4: H2M11164N: anti-STEAP2 antibody, mouse IgG2 Fc, HCVR/LCVR SEQ ID NOs 282/290 (antibody, V domains shown)
VH: B1 VH 1 with A23V, S31T, R33S, Q48E, L67V, M86L, F113Y, D117Y
VL: B1 VL with S28N, E45K, A50V, S85T, A94T, Q101H
modifications: mouse IgG2 Fc
B5: BSSTEAP2/CD3-006: STEAP2×CD3 bispecific: anti-STEAP2 H1H11162 (SEQ 250), anti-CD3 CD3-VH-P (SEQ 1882), common LCVR SEQ 258 (antibody, V domains shown)
VH 1: B1 VH 1
VH 2: B1 VH 2 with A23V, I58K, G59D, D99Y, Y108H, M111L
VL: B1 VL
B6: BSSTEAP2/CD3-007: STEAP2×CD3 bispecific: anti-STEAP2 H1H11162 (SEQ 250), anti-CD3 H1H7195P (SEQ 1450), common LCVR SEQ 258 (antibody, V domains shown)
VH 1: B1 VH 1
VH 2: EVQLVESGGGLVQPGRSLRLSCAASGFTFADYTMHWVRQAPGKGLEWVSDISWNSGSIAYADSVKGRFTISRDNAKNSLYLQMNSLRTEDTAFYYCAKDSRGYGHYKYLGLDVWGQGTTVTVSS
VL: B1 VL
B7: BSSTEAP2/CD3-004: STEAP2×CD3 bispecific: anti-STEAP2 H1H7814N (SEQ 218), anti-CD3 H1H7251P (SEQ 1570), common LCVR SEQ 226 (antibody, V domains shown)
VH 1: QVQLVESGGGVVQPGRSLRLSCVASGFTISSYGMNWVRQAPGKGLEWVAVISYDGGNKYSVDSVKGRFTISRDNSKNTLYLQMNSLRAEDSAVYYCARGRYFDLWGRGTLVTVSS
VH 2: EVQLVESGGGLVQPGRSLRLSCAASGFTFADYTMHWVRQGPGTGLEWVSDIGWSGGSLGYADSVKGRFTISRDNAKNSLYLEMNNLRPEDTALYYCVKDKSGYGKFQYGLDVWGQGTTVTVSS
VL: DIQMTQSPSTLSASVGDRVTITCRASQSISSWLAWYQQKPGRAPNLLISKASSLKSGVPSRFSGSGSGTEFTLTVSSLQPDDFATYYCQQYYSYSYTFGQGTKLEIK
B8: H1H7814N: human-Fc anti-STEAP2 antibody, HCVR/LCVR SEQ ID NOs 218/226 (antibody, V domains shown)
VH: B7 VH 1
VL: B7 VL
modifications: human Fc
B9: H1H11880P: anti-STEAP2 antibody, HCVR/LCVR SEQ ID NOs 34/42 (antibody, V domains shown)
VH: EVQLVESGGGLVQPGGSLRLSCAASGFTFSTYAMHWVRQAPGKGLQHVSTISTNGVNTYYADSVKGRFTISRDNSKSTLYLQMGSLRAEDMAVYYCARDKDFWSGYFDYWGQGTLVTVSS
VL: EIVMTQSPGTLSVSPGERATLSCRASQSVSSNLAWYHQKPGQAPRLLIYGASTRATGFPARFSGSGSGTEFTLTISSLQSEDFAAYYCQQYNNWPITFGQGTRLEIK

What was measured:
[1] = system: human prostate cancer C4-2 cells (xenograft); assay: C4-2/human PBMC co-implant xenograft in NSG mice, immediate dosing; format: in vivo, mouse; conditions: C4-2/NSG; for Tumor growth compared to isotype control at study endpoint (in words): 0.1 or 0.01 mg/kg
Description: To assess the in vivo efficacy of the anti-STEAP2/anti-CD3 bispecifics in human tumor xenograft studies, NOD scid gamma (NSG) mice (Jackson Laboratories, Bar Harbor, Me.) were co-implanted with human peripheral blood mononuclear cells (PBMCs; ReachBio LLC., Seattle, Wash.) along with human prostate cancer C4-2 cells (MD Anderson Cancer Center, Houston Tex.) which endogenously express STEAP2.
Briefly, 5.0×10^6 C4-2 cells were co-implanted subcutaneously (s.c.) with 1.25×10^6 human PBMCs in a 50:50 mix of matrigel matrix (BD Biosciences, San Jose, Calif.) into the right flank of male NSG mice. Mice were treated intraperitoneally (i.p.) on the day of implantation (immediate treatment model) with anti-STEAP2/anti-CD3 bispecifics BSSTEAP2/CD3-001, BSSTEAP2/CD3-002 or BSSTEAP2/CD3-003, or an isotype control, at a dose of 0.1 or 0.01 mg/kg (N=5 mice/group).
Tumor size was measured 2×/week using calipers and tumor volume calculated as Volume=(length×width^2)/2. Data is shown as tumor size (mm^3) at study endpoint, 46 d post-tumor implantation (Table 7).

[2] = system: C4-2 cells (high-STEAP2 expressing); assay: Internalization and total binding on C4-2 cells (imaging, qualitative score); format: cell-based, human; set-up: key: − (no internalization or binding); +(weak internalization or binding); ++(moderate internalization or binding); +++(robust internalization or binding); conditions: 10 μg/ml antibody
Description: Briefly, 20,000 C4-2 cells were seeded in PDL coated 96 well plates. The next day, cells were incubated with anti-human STEAP2 antibodies (10 μg/ml) for 30 min on ice followed by two PBS washes. Cells were then incubated with alexa488-conjugated anti-hFc Fab secondary antibody for 30 minutes on ice, followed by two additional PBS washes. Antibodies were allowed to internalize for 1 h at 37° C. in internalization buffer (PBS+2% FBS) or were maintained at 4° C. Cells were fixed in 4% formaldehyde, nuclei were stained with DRAQ5 (Cell signaling), and images were acquired on the ImageXpress micro XL (Molecular Devices).
A qualitative visual assessment of the total binding intensity and the intensity of antibodies that had internalized into vesicles was performed and scored according to the following criteria: − (no internalization or binding), +(weak internalization or binding), ++(moderate internalization or binding) and +++(robust internalization or binding).

cynomolgus T cells = assay: FACS binding titration of STEAP2xCD3 bispecifics on cynomolgus T cells; conditions: 66.6 nM to 0.001 nM, 30 minutes at 4° C.
Description: FACS Binding Titration on Jurkat Cells, PC3_STEAP2/1 Cells and cynomolgus T Cells: Flow cytometric analysis was utilized to determine binding of STEAP2×CD3 bispecific antibodies to Jurkat, PC3_STEAP2/1 chimeric and cynomolgus T cells, followed by detection with a phycoerythrin (PE)-labeled anti-human IgG antibody. Briefly, 2×10^5 cells/well were incubated for 30 minutes at 4° C. with a serial dilution of STEAP2×CD3 bispecific antibodies or control antibody (a human IgG1 antibody that binds a feline antigen with no cross-reactivity to STEAP2 or human or cynomolgus CD3) ranging from 66.6 nM to 0.001 nM. After incubation, the cells were washed twice with cold PBS containing 1% filtered FBS and a PE-conjugated anti-human secondary antibody was added to the cells and incubated for an additional 30 minutes. Wells containing no antibody or secondary antibody only were used as a control. After incubation, cells were washed, re-suspended in 200 μL cold PBS containing 1% filtered FBS and analyzed by flow cytometry on a BD FACS Canto II.

monkey PBMCs = assay: T cell proliferation assay, cynomolgus PBMC; format: cell-based; conditions: for Cynomolgus PBMC proliferation activity (in words): across donors tested
Description: Thawed human or freshly isolated monkey PBMCs (50,000 cells/well) were incubated with 3-fold (human, concentration range: 5E-10M to 2.82E-15M; cynomolgus, concentration range: 1E-09M to 4.57E-13M) serial dilutions of STEAP2×CD3 bispecifics or isotype control in complete medium (RPMI supplemented with 10% FBS, 100 U/mL penicillin, 100 μg/mL streptomycin, 292 μg/mL L-glutamine) and a fixed concentration (human: 200 ng/mL, cyno: 500 ng/mL) of a commercial anti-CD28 antibody (Biolegend, Catalog #302914) in white flat bottom 96-well plates for 72 hours at 37° C. Isolated monkey PBMCs were from two donors (identified as mk8781M or mk9381M). Following incubation, CellTiter Glo® (Promega, Cat #7573) was added and luminescence, as readout for cell viability, was measured using a VICTOR X5 multi-label plate reader. Cell titer was calculated by dividing the luminescence of stimulated cells by the baseline luminescence of unstimulated cells.

[3] = 0.01 mg/kg i.p. on day of implantation
[4] = 0.1 mg/kg i.p. on day of implantation

Row | EC50 (cynomolgus T cells) [nM] | Molecule | Internalization (37° C., 1 h) Qualitative Score [2] | Total Binding (4° C.) Qualitative Score [2] | Cynomolgus PBMC proliferation activity (in words) (monkey PBMCs) | other results
1 | – | B1 | – | – | – | Tumor Size (mm^3) 46 d post-tumor implantation (mean ± SD) [1, 3]: 17.0 ± 8.0 mm^3; Tumor Size (mm^3) 46 d post-tumor implantation (mean ± SD) [1, 4]: 15.0 ± 12.0 mm^3; Tumor growth compared to isotype control at study endpoint (in words) [1]: significantly suppressed tumor growth
2 | – | B2 | +++ | +++ | – | –
3 | – | B3 | – | – | – | Tumor Size (mm^3) 46 d post-tumor implantation (mean ± SD) [1, 3]: 25.0 ± 21.0 mm^3; Tumor Size (mm^3) 46 d post-tumor implantation (mean ± SD) [1, 4]: 19.0 ± 12.0 mm^3; Tumor growth compared to isotype control at study endpoint (in words) [1]: significantly suppressed tumor growth
4 | – | B4 | +++ | +++ | – | –
5 | 7.99 | B5 | – | – | induced robust cynomolgus PBMC proliferation in all donors tested | EC50 (monkey PBMCs; donor mk9381M, anti-CD28 500 ng/mL, 72 hours, read-out: Cyno PBMC Proliferation [M] (donor)): 1.53e-11 M
6 | 17.3 | B6 | – | – | donor dependent | –
7 | 1.99 | B7 | – | – | donor dependent | –
8 | – | B8 | + | + | – | –
9 | – | B9 | + | + | – | –
